Measurements taken from patent US9777044B2, “GLUT-1 as a receptor for HTLV envelopes and its uses” (CENTRE NATIONAL DE LA RECHERCHE SCIENTIFIQUE (CNRS), priority 2003, dated 2017).

Key:
[1] = tested on: human primary hepatocytes; assay: RBD binding on human primary hepatocytes
[2] = tested on: 293T cells and Jurkat T cells; assay: RBD binding after overnight culture in the absence of glucose; design: species or system human; settings: both 293T cells and Jurkat T cells
Experimental: Cell culture. 293T human embryonic kidney and HeLa cervical carcinoma cells were grown in Dulbecco's modified Eagle medium (DMEM) with high glucose (4.5 g/l) and Jurkat T-cells were grown in RPMI supplemented with 10% fetal bovine serum (FBS) at 37° C. in a 5% CO2-95% air atmosphere. For glucose starvation experiments, cells were grown in either glucose-free DMEM (Life Technologies) or glucose-free RPMI—(Dutscher) with 10% dialyzed FBS (Life Technologies) and glucose (1 g/l) was supplemented when indicated.
Binding assays. Binding assays were carried out as previously described [Manel, 2003]. Briefly, 5×10^5 cells (293T, HeLa, Jurkat or freshly isolated human erythrocytes) were incubated with 500 μl of H1RBD, H2RBD or ARBD supernatants for 30 min at 37° C., washed with PBA (1% BSA, 0.1% sodium azide in PBS), and incubated with a sheep anti-rabbit IgG antibody conjugated to fluorescein isothiocyanate (Sigma). […] Binding was analyzed on a FACSCalibur (Becton Dickinson) and data analysis was performed using CellQuest (Becton Dickinson) and WinMDI (Scripps) softwares.

B1: H1RBD: first 215 residues of HTLV-1 SU fused to a C-terminal rabbit IgG Fc tag (rFc) (protein)
chain: DYSPSCCTLTIGVSSYHSKPCNPAQPVCSWTLDLLALSADQALQPPCPNLVSYSSYHATYSLYLFPHWIKKPNRNGGGYYSASYSDPCSLKCPYLGCQSWTCPYTGAVSSPYWKFQQDVNFTQEVSRLNINLHFSKCGFPFSLLVDAPGYDPIWFLNTEPSQLPPTAPPLLPHSNLDHILEPSIPWKSKLLTLVQVDVPRDCGCKPCICTVPEVSSVFIFPPKPKDVLTITLTPKVTCVVVDISKDDPEVQFSWFVDDVEVHTAQTQPREEQFNSTFRSVSELPIMHQDWLNGKEFKCRVNSAAFPAPIEKTISKTKGRPKAPQVYTIPPPKEQMAKDKVSLTCMITDFFPEDITVEWQWNGQPAENYKNTQPIMDTDGSYFVYSKLNVQKSNWEAGNTFTCSVLHEGLHNHHTEKSLSHSPGK
- binding to human primary hepatocytes [1]: unable to detect H1RBD binding
- increase of binding after overnight culture in the absence of glucose [2]: 2 fold
